The assay concerns the target T1, STEAP1 (UniProt Q9UHE8 1-339, limits assumed).
T1 construct: whole, on cells; also called Six-Transmembrane Epithelial Antigen of the Prostate 1
Kind of assay: cell binding (MFI) on LOX-IMVI cells expressing STEAP1. An excerpt:
STEAP1 x CD28 bsAbs were engineered in 2+1 formats (mAb-scFv or Fab₂-scFv-Fc) to investigate the effects of bivalent binding to STEAP1 antigen compared with monovalent binding of a STEAP1 x CD28 bsAb in the 1+1 Fab-scFv format. LOX-IMVI cells (which express both STEAP1 at—8000 antigens/cell as well as an aCD3-scFv in order to provide Signal 1) were mixed with purified T cells at a 1:1 E:T ratio. As depicted in FIG. 36, XENP47235 in the […] format reaches a higher level of binding as measured by the MFI, indicating a higher antigen binding capacity and potentially higher efficacy. […] Each format may be advantageous in different contexts.

B1: XENP47241 (bispecific antibody)
heavy 1: QVQVQESGPGLVKPSQTLSLTCTVSGYSITSDYSWNWIRQPPGKKLEWIGYIGTSGSTVYNPSLKSRVTISRDTSKNQFSLKLSSVTAADTAVYYCARERNYDYELYYYAMDYWGQGTLVTVSSASTKGPSVFPLAPSSKSTSGGTAALGCLVKDYFPEPVTVSWNSGALTSGVHTFPAVLQSSGLYSLSSVVTVPSSSLGTQTYICNVNHKPSDTKVDKKVEPKSCDKTHTCPPCPAPPVAGPSVFLFPPKPKDTLMISRTPEVTCVVVDVKHEDPEVKFNWYVDGVEVHNAKTKPREEEYNSTYRVVSVLTVLHQDWLNGKEYKCKVSNKALPAPIEKTISKAKGQPREPQVYTLPPSREEMTKNQVSLTCDVSGFYPSDIAVEWESDGQPENNYKTTPPVLDSDGSFFLYSKLTVDKSRWEQGDVFSCSVLHEALHSHYTQKSLSLSPGK
heavy 2: not shown
light 1: not shown
light 2: not shown
notes: also called STEAP1 x CD28 bsAb in the 2+1 mAb-scFv format
Take B1: the binding result is given as “binds”.

Source of the values: US20250043001A1 (Xencor, published 2025).
